Patent US20140274782A1, “AFFINITY REAGENTS AND METHODS FOR DETECTION, PURIFICATION, AND PROTEOMIC ANALYSIS OF METHYLATED PROTEINS” (The Board of Trustees of the Leland Stanford Junior …, priority 2013, published 2014)

T1: G9a and GLP (Homo sapiens, UniProt Q96KQ7+Q9H9B1)
T1 sequence (Q96KQ7 2-1210 limits assumed): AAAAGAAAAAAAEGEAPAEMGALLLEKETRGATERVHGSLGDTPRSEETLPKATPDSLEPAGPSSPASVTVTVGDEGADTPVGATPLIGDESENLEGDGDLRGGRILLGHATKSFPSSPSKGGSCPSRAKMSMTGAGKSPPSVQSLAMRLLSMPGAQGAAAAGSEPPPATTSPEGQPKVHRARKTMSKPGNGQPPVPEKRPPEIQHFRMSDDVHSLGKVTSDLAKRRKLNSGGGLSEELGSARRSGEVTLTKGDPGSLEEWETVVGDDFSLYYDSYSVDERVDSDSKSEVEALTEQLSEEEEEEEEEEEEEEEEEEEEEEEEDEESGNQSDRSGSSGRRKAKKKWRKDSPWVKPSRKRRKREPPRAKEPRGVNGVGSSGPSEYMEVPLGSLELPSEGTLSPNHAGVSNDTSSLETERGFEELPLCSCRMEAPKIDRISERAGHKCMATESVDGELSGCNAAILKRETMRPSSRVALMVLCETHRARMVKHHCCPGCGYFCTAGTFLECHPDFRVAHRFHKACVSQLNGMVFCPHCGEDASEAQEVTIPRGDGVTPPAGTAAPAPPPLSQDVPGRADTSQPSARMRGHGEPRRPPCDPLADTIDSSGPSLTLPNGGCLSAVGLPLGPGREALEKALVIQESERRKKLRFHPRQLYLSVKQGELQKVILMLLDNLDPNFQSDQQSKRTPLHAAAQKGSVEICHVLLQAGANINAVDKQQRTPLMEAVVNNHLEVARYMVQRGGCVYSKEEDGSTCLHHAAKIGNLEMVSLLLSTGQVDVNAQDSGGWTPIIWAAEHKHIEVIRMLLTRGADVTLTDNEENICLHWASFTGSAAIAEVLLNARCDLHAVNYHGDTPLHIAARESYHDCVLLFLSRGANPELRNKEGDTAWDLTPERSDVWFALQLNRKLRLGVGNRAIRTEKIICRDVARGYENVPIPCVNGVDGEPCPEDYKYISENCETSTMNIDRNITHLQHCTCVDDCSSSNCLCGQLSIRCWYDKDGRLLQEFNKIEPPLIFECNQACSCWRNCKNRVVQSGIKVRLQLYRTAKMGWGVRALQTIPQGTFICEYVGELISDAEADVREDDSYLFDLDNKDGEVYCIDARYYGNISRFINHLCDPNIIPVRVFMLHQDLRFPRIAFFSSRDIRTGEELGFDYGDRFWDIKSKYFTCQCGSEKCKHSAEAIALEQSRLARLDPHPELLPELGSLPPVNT
T1 sequence (Q9H9B1 2-1298 limits assumed): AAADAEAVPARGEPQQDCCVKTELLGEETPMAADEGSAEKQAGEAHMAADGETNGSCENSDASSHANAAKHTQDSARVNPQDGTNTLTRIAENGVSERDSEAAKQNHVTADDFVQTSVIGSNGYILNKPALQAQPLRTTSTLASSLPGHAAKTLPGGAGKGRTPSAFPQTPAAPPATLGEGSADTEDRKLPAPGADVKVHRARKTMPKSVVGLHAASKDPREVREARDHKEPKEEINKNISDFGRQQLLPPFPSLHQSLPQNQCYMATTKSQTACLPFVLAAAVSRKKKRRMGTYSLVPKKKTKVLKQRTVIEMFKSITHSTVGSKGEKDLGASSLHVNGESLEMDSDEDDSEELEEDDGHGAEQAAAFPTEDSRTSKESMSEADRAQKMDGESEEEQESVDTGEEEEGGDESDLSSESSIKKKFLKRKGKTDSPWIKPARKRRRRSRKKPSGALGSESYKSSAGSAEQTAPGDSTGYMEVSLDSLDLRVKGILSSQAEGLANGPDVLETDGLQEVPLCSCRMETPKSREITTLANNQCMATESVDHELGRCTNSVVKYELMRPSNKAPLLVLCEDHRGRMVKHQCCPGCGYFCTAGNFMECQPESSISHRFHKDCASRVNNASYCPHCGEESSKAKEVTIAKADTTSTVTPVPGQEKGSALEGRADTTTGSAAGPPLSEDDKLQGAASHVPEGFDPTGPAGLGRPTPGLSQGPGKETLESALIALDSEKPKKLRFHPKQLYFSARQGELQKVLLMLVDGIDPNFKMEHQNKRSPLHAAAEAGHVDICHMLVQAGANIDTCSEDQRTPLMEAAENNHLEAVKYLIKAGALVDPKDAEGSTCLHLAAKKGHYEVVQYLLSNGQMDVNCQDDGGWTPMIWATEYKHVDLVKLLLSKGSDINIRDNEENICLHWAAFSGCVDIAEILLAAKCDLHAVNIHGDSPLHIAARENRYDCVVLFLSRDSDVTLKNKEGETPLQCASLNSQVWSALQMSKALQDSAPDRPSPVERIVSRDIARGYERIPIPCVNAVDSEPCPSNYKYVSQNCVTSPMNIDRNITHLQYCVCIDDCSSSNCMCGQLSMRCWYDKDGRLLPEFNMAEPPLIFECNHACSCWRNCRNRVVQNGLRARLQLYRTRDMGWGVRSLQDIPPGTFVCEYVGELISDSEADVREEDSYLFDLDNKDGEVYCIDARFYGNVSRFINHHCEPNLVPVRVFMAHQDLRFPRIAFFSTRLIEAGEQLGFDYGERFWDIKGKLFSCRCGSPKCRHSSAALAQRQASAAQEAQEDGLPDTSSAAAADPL

B1: 3×MBT: three MBT repeats of L3MBTL1 (amino acids 190-530 of accession NP—056293.4), expressed as GST or Flag fusion; methyl-lysine affinity reagent (protein)
chain: EEWSSSQPATGEKKECWSWESYLEEQKAITAPVSLFQDSQAVTHNKNGFKLGMKLEGIDPQHPSMYFILTVAEVCGYRLRLHFDGYSECHDFWVNANSPDIHPAGWFEKTGHKLQPPKGYKEEEFSWSQYLRSTRAQAAPKHLFVSQSHSPPPLGFQVGMKLEAVDRMNPSLVCVASVTDVVDSRFLVHFDNWDDTYDYWCDPSSPYIHPVGWCQKQGKPLTPPQDYPDPDNFCWEKYLEETGASAVPTWAFKVRPPHSFLVNMKLEAVDRRNPALIRVASVEDVEDHRIKIHFDGWSHGYDFWIDADHPDIHPAGWCSKTGHPLQPPLGPREPSSASPGG
modifications: left off: a dimerising Fc or GST
B2: eEF1A1: protein with methylated lysine identified in 3xMBT pull-down (protein, UniProt P68104 2-462, looked up)
Elongation factor 1-alpha 1: GKEKTHINIVVIGHVDSGKSTTTGHLIYKCGGIDKRTIEKFEKEAAEMGKGSFKYAWVLDKLKAERERGITIDISLWKFETSKYYVTIIDAPGHRDFIKNMITGTSQADCAVLIVAAGVGEFEAGISKNGQTREHALLAYTLGVKQLIVGVNKMDSTEPPYSQKRYEEIVKEVSTYIKKIGYNPDTVAFVPISGWNGDNMLEPSANMPWFKGWKVTRKDGNASGTTLLEALDCILPPTRPTDKPLRLPLQDVYKIGGIGTVPVGRVETGVLKPGMVVTFAPVNVTTEVKSVEMHHEALSEALPGDNVGFNVKNVSVKDVRRGNVAGDSKNDPPMEAAGFTAQVIILNHPGQISAGYAPVLDCHTAHIACKFAELKEKIDRRSGKKLEDGPKFLKSGDAAIVDMVPGKPMCVESFSDYPPLGRFAVRDMRQTVAVGVIKAVDKKAAGAGKVTKSAQKAQKAK
modifications: methylated lysine
notes: protein with methylated lysine identified in 3xMBT pull-down
B3: DDX1: protein with methylated lysine identified in 3xMBT pull-down (protein, UniProt Q92499 1-740, looked up)
ATP-dependent RNA helicase …: MAAFSEMGVMPEIAQAVEEMDWLLPTDIQAESIPLILGGGDVLMAAETGSGKTGAFSIPVIQIVYETLKDQQEGKKGKTTIKTGASVLNKWQMNPYDRGSAFAIGSDGLCCQSREVKEWHGCRATKGLMKGKHYYEVSCHDQGLCRVGWSTMQASLDLGTDKFGFGFGGTGKKSHNKQFDNYGEEFTMHDTIGCYLDIDKGHVKFSKNGKDLGLAFEIPPHMKNQALFPACVLKNAELKFNFGEEEFKFPPKDGFVALSKAPDGYIVKSQHSGNAQVTQTKFLPNAPKALIVEPSRELAEQTLNNIKQFKKYIDNPKLRELLIIGGVAARDQLSVLENGVDIVVGTPGRLDDLVSTGKLNLSQVRFLVLDEADGLLSQGYSDFINRMHNQIPQVTSDGKRLQVIVCSATLHSFDVKKLSEKIMHFPTWVDLKGEDSVPDTVHHVVVPVNPKTDRLWERLGKSHIRTDDVHAKDNTRPGANSPEMWSEAIKILKGEYAVRAIKEHKMDQAIIFCRTKIDCDNLEQYFIQQGGGPDKKGHQFSCVCLHGDRKPHERKQNLERFKKGDVRFLICTDVAARGIDIHGVPYVINVTLPDEKQNYVHRIGRVGRAERMGLAISLVATEKEKVWYHVCSSRGKGCYNTRLKEDGGCTIWYNEMQLLSEIEEHLNCTISQVEPDIKVPVDEFDGKVTYGQKRAAGGGSYKGHVDILAPTVQELAALEKEAQTSFLHLGYLPNQLFRTF
B4: CMAS: protein with methylated lysine identified in 3xMBT pull-down (protein, UniProt Q8NFW8 1-434, looked up)
N-acylneuraminate …: MDSVEKGAATSVSNPRGRPSRGRPPKLQRNSRGGQGRGVEKPPHLAALILARGGSKGIPLKNIKHLAGVPLIGWVLRAALDSGAFQSVWVSTDHDEIENVAKQFGAQVHRRSSEVSKDSSTSLDAIIEFLNYHNEVDIVGNIQATSPCLHPTDLQKVAEMIREEGYDSVFSVVRRHQFRWSEIQKGVREVTEPLNLNPAKRPRRQDWDGELYENGSFYFAKRHLIEMGYLQGGKMAYYEMRAEHSVDIDVDIDWPIAEQRVLRYGYFGKEKLKEIKLLVCNIDGCLTNGHIYVSGDQKEIISYDVKDAIGISLLKKSGIEVRLISERACSKQTLSSLKLDCKMEVSVSDKLAVVDEWRKEMGLCWKEVAYLGNEVSDEECLKRVGLSGAPADACSTAQKAVGYICKCNGGRGAIREFAEHICLLMEKVNNSCQK

Assays:
3×MBT domain of L3MBTL1 = assay: Triple SILAC pull-down, 3xMBT/3xMBTD355N ratio (cytoplasmic, nuclear and chromatin fractions of 293T cells); assay type: binding, human; details: for 3xMBT/D355N UNC Heavy / 3xMBT/D355N UNC Light: SILAC ratio, pull-down 3xMBT vs 3xMBTD355N; for 3xMBT/D355N UNC Heavy: experiment with UNC0638 in heavy SILAC media; for 3xMBT/D355N UNC Light: experiment with UNC0638 in light SILAC media;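 for all read-outs here: proteins quantified with MaxQuant, requiring at least two unique peptides and quantification in both label directions, normalized to the mean of proteins from a digested loading control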
G9a and GLP = biological target: T1, G9a and GLP; assay: Triple SILAC pull-down after UNC0638 treatment of 293T cells, DMSO/UNC0638 ratio of protein captured by 3×MBT; assay type: cell-based; parameters: cells were treated for 24 hours with UNC0638 at 2.5 μM or DMSO vehicle control; endogenous in cells; host or cells: HEK 293T; details: for Relative to UNC0638 UNC Heavy / Relative to UNC0638 UNC Light: SILAC ratio DMSO/UNC0638 of protein pulled down with 3xMBT; for Relative to UNC0638 UNC Heavy: UNC0638 in heavy SILAC media; for Relative to UNC0638 UNC Light: UNC0638 in light SILAC media; for Relative to UNC0638 Average: average of UNC Light and UNC Heavy experiments;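 for all read-outs here: mass spectrometry (Q-Exactive) SILAC quantitation, DMSO/UNC0638 ratio computed after subtracting 3×MBTD355N mutant pull-down background, only proteins with at least twofold 3×MBT over mutant signal considered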

Row | Molecule | number of proteins enriched by 3×MBT compared to 3×MBTD355N (3×MBT domain of L3MBTL1; two biological replicates) | 3xMBT/D355N UNC Heavy (3×MBT domain of L3MBTL1) [log base 2] | 3xMBT/D355N UNC Light (3×MBT domain of L3MBTL1) [log base 2] | Relative to UNC0638 UNC Heavy (G9a and GLP) [log base 2] | Relative to UNC0638 UNC Light (G9a and GLP) [log base 2] | Relative to UNC0638 Average (G9a and GLP) [log base 2]
1 | B1 | 370 |  |  |  |  | 
2 | B2 |  | 3.08 | 2.87 | 0.27 | 0.04 | 0.15
3 | B3 |  | 3.07 | 3.64 | 0.02 | 0.29 | 0.16
4 | B4 |  | 2.71 | 2.86 | 0.22 | 0.12 | 0.17
